{
  "source": "paper PMC4628734",
  "origin": "cited, not measured here",
  "molecular_target": "Cdc25C (Homo sapiens) (UniProt P30307)",
  "sequence (P30307 whole entry, looked up)": "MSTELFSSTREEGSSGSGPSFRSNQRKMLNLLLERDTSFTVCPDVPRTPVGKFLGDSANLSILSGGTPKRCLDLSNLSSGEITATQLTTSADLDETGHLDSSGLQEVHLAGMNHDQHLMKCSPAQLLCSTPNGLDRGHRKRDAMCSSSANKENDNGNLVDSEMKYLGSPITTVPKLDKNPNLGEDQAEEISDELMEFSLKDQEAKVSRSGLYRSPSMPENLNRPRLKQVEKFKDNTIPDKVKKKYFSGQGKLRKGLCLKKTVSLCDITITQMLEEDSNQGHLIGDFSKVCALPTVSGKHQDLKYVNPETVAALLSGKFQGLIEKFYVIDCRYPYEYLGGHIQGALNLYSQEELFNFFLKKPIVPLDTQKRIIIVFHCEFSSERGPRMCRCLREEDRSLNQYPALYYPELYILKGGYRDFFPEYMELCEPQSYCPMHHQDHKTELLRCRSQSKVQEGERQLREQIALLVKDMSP",
  "note": "pKd: −log10 of the molar value.",
  "data": [
    {"substance": "PLK-1 PBD (from UniProt P53350)", "values": [
      {"measurement": "pKd", "value": 5.74}
    ]}
  ]
}
